# Measurements: the supplement of paper PMC9732359
# ± gives the uncertainty stated by the source.
# Assay: protein stability index of a GFP-peptide fusion (yeast GPS) (PSI 1-4); higher = more stable; sorted into four equal gates, so the index is relative within each strain
# Conditions: san1∆
# How it was run: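 Tiled 17-residue yeast protein peptides were fused downstream of GFP in a plasmid that also expresses Cherry, and the pooled library was carried in yeast. Mid-log cultures in leucine-free medium were sorted into four equal gates by GFP/Cherry fluorescence ratio, and plasmids from each gate were PCR-amplified and Illumina-sequenced, with reads assigned to strains by barcodes. The protein stability index for each peptide was each gate's read frequency times its gate number, summed.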
row,Sequence,protein stability index
1,VYINPSGEKIDFLLSDW [BRR2],3.22 ± 0.12
2,VYTAIYNYCVNKSRSSG [CDC53],2.61 ± 0.053
3,VYTQSNGKTRTLENTLK [RPS2],3.24 ± 0.075
4,WAVTLDTSRPDLEWQEL [DSN1],3.13 ± 0.047
5,WCTTCKSAENIIKMTIP [RET1],3.11 ± 0.067
6,WDDHTKKPLSMALNKVL [CDC53],2.36 ± 0.056
7,WDLVDERTKQRTAKAYL [PRP8],3.09 ± 0.074
8,WEQLKITVVPVVAAAED [QCR6],1.99 ± 0.099
9,WIKFDQELYNELCKKNE [RPN7],2.79 ± 0.17
10,WKQDLTKEEAIKLASDA [PUP1],2.2 ± 0.14
11,WKYNNFLQKFEIAFHLT [YML103C/NUP188],2.01 ± 0.052
12,WLAEKFQKETNMKVTIL [PRP28],3.27 ± 0.25
13,WNLLRSLYIFFTTLLES [YML103C/NUP188],1.69 ± 0.06
14,WNVEKFKKDFEVNISSL [RPC40],2.6 ± 0.084
15,WPIVQKTYEPVLNEDDL [RPN5],1.85 ± 0.098
16,WSEISNELPDIEALYDD [RPN2],3.29 ± 0.16
17,WSSEFAKWAPTLRTISF [SNF2],2.78 ± 0.063
18,WTMAFRTMDDIKDSVRE [ECM29],2.67 ± 0.11
19,YACISSRPGQSGRCDGY [RPS8A],3.35 ± 0.097

row,Sequence,protein stability index
1,YCDKNFRENMSKEETVD [PRE3],3.04 ± 0.066
2,YDALLSINVHSNNITSG [RET1],2.59 ± 0.059
3,YDRKKLPRKEVDDVLGG [RPC11],3.29 ± 0.065
4,YDSDSDSSVEDSTDNEN [LIN1],2.91 ± 0.12
5,YDSRTTIFSPEGRLYQV [PRE9],2.97 ± 0.078
6,YDYYALQLLPLQKAVRG [SNF2],1.87 ± 0.09
7,YEEFRDVAIENNTLSRY [RRP43],3.178 ± 0.029
8,YEIRDIDQDIHGIVFQH [SSN2],2.72 ± 0.051
9,YELYINKLTILGRDYPI [IRR1],1.44 ± 0.055
10,YEYAEHDLLQIIHFHSH [SSN3],2.5 ± 0.045
11,YFLDVKCPGCLNITTVF [RPS27A],2.19 ± 0.1
12,YGILSIDDLIHEIITVG [RPL7A],2.58 ± 0.11
13,YGITHGLTNWAAAYATG [RPL5],2.28 ± 0.09
14,YGNRAEQFLETDSDFAK [SRP68],3.26 ± 0.083
15,YGPPGTGKTLLARACAA [RPT5],2.29 ± 0.18
16,YGVSFFTIQSFVSSLSN [BRR2],1.18 ± 0.087
17,YIKYNILLTSISRERDL [SRP68],1.83 ± 0.12
18,YINDVHLLYPPHIIAVA [SSN8],2.15 ± 0.072

# Same assay, conditions: ubr1∆
row,Sequence,protein stability index
1,VYINPSGEKIDFLLSDW [BRR2],2.38 ± 0.073
2,VYTAIYNYCVNKSRSSG [CDC53],2.71 ± 0.043
3,VYTLACRSCPYEFPIEG [RPC11],1.54 ± 0.17
4,VYTQSNGKTRTLENTLK [RPS2],3.38 ± 0.07
5,WAVTLDTSRPDLEWQEL [DSN1],3.14 ± 0.033
6,WCTTCKSAENIIKMTIP [RET1],3.03 ± 0.071
7,WDDHTKKPLSMALNKVL [CDC53],1.94 ± 0.048
8,WDLVDERTKQRTAKAYL [PRP8],3.1 ± 0.1
9,WEHTAAEDQILANFVAK [SRB8],2.57 ± 0.11
10,WEQLKITVVPVVAAAED [QCR6],2.03 ± 0.033
11,WIKFDQELYNELCKKNE [RPN7],3.1 ± 0.17
12,WKQDLTKEEAIKLASDA [PUP1],3.01 ± 0.16
13,WKYNNFLQKFEIAFHLT [YML103C/NUP188],2.36 ± 0.027
14,WLAEKFQKETNMKVTIL [PRP28],2.79 ± 0.11
15,WNLLRSLYIFFTTLLES [YML103C/NUP188],1.43 ± 0.028
16,WNVEKFKKDFEVNISSL [RPC40],2.59 ± 0.082
17,WPIVQKTYEPVLNEDDL [RPN5],2.27 ± 0.071
18,WPQSKNCEYEDPPNEGD [RPB3],3.2 ± 0.14
19,WSEISNELPDIEALYDD [RPN2],3.12 ± 0.11
20,WSSEFAKWAPTLRTISF [SNF2],2.47 ± 0.056
21,WTMAFRTMDDIKDSVRE [ECM29],2.66 ± 0.12

row,Sequence,protein stability index
1,YACISSRPGQSGRCDGY [RPS8A],3.28 ± 0.046
2,YCDKNFRENMSKEETVD [PRE3],2.92 ± 0.049
3,YDALLSINVHSNNITSG [RET1],2.76 ± 0.04
4,YDRKKLPRKEVDDVLGG [RPC11],3.32 ± 0.099
5,YDSDSDSSVEDSTDNEN [LIN1],3.1 ± 0.042
6,YDSRTTIFSPEGRLYQV [PRE9],3.09 ± 0.063
7,YDYYALQLLPLQKAVRG [SNF2],1.74 ± 0.035
8,YEEFRDVAIENNTLSRY [RRP43],3.2 ± 0.035
9,YEIRDIDQDIHGIVFQH [SSN2],2.75 ± 0.033
10,YELYINKLTILGRDYPI [IRR1],2.04 ± 0.032
11,YESIATYASVTGLFTLE [RPN7],1.96 ± 0.29
12,YEYAEHDLLQIIHFHSH [SSN3],2.63 ± 0.04
13,YFKLDLTSDLVYFGDEN [RRI2],1.48 ± 0.08
14,YFLDVKCPGCLNITTVF [RPS27A],2.85 ± 0.054
15,YGILSIDDLIHEIITVG [RPL7A],1.56 ± 0.061
16,YGITHGLTNWAAAYATG [RPL5],2.26 ± 0.056
17,YGNRAEQFLETDSDFAK [SRP68],3.23 ± 0.065
18,YGVSFFTIQSFVSSLSN [BRR2],1.42 ± 0.054
19,YIKYNILLTSISRERDL [SRP68],1.91 ± 0.094
20,YINDVHLLYPPHIIAVA [SSN8],1.67 ± 0.065
21,YINVSRGTDIDRINYTE [SRB5],3.02 ± 0.22
